Common to all, as to experiment: purified protein
What all share (conditions): 100 mM sodium acetate, pH 5.5, 37 °C, 30 min, no added calcium

Substrate in data set [1]: OC[C@H]1O[C@@](CO)(O[C@H]2O[C@H](CO)[C@@H](O)[C@H](O)[C@H]2O)[C@@H](O)[C@@H]1O
It counts as biochemical, Culex quinquefasciatus.

Substrate in data set [2]: OC[C@H]1O[C@@](CO)(O[C@H]2O[C@H](CO)[C@@H](O)[C@H](O)[C@H]2O)[C@@H](O)[C@@H]1O
The data set is classed as biochemical, Aedes aegypti.

Substrate in data set [3]: OC[C@H]1O[C@@](CO)(O[C@H]2O[C@H](CO)[C@@H](O)[C@H](O)[C@H]2O)[C@@H](O)[C@@H]1O
The data set is classed as biochemical, Anopheles gambiae.

B1: CxGluc (Culex quinquefasciatus) (protein)
chain: LQWWEHGNFYQVYPRSFKDSDGNGIGDLDGVTEKLQYLKDVGMDGIWLSPIFASPMADFGYDISDFYNIQGEYGDLAAFERLSAKCKELGLRLILDFVPNHTSNQHEYFKKSVQKEDPYTNYYVWHPGVTNEDGTKSPPSNWISVFRGSAWEWNEDRQEYYLHQFLKEQPDLNYRDPALVEEMKNVLKFWLNKGVSGFRIDAVPYLFESVEVENRYVDEPLSRATDDAENPAYLIHNQTMDQPETYDMIYQWRAVLDEFTAKDNQTRIMMTEGYTSIPNVMKFFGEGEQNGAQIPFNFQMISNLRKTSTAADFARYANLWLDNLPAGRRSNWVLGNHDNNRIGSRLGEAKIDLYNIALQTLPDIAVTYYGEEIGMVDQPIPFNETVDPAGLRAGPDDYTLYSRDPARTPMQWNSDKNAGFSSADKTWLPVATNYKQLNVKAQDAAQKSHLKLFKRLTTYRKRQILTHGDLDLRTTDSNLVLYKRKVDKVGYVVVVLNFSDEPQSLAAIKQQFPGADDRLQVVASSKLVTIKDNKWINVADTELPGESAIVLQKLWGPNPVVVYEA
The Km is the substrate concentration at which the rate is half of its maximum. Usually Vmax stands for the top rate of the reaction or transport when substrate is in excess. What is called kcat is the number of substrate molecules converted per active site and unit of time at saturation. By kcat/Km is commonly meant the turnover number divided by the Michaelis constant. B1: in data set [1], the Km was found to be 40.1 ± 15.1 mM, the maximal velocity (Vmax) stood at 690 µM/min, the kcat was 750 ± 75 s⁻¹ and the kcat/Km was 18700 ± 1850 M⁻¹ s⁻¹.

B2: AeGluc (Aedes aegypti) (protein)
chain: LDWWEHGNFYQVYPRSFKDSDGDGIGDLDGVTEKLKYLKDIGMDGVWLSPIFSSPMADFGYDISNFREIQTEYGDLDAFQRLSDKCKQLGLHLILDFVPNHTSDQHEYFKKSVQKDETYKDFYVWHPGVHGPNNTKVPPSNWISVFRGSSWEWNEERQEFYLHQFLKEQPDLNYRNPAVVEEMKNVLRYWLDRGVSGFRIDAVPYLFESDIIDGRYRNEPESRTTDDPENPAYLVHTQTMDQPETYDMIYQWRAVLDEYSKTDNRTRIMMTEGYTSLPKIIEFFGNATANGAQIPFNFEVISNVKKNSTGADFATYVKRWLDAKPANRRSNWVLGNHDNNRLGSRLGENKIDLYNIALQTLPDIAVTYYGEEIGMLDQWIPWNETVDPAACRSDEASYSAYSRDPARTPMQWDSGKNAGFSKAAKTWLPVADNYKTLNVKIQDRARKSHLKIFKKLTKYRKRQILTEGDIDIKVSGENLLVYKRKVDKVGYVVVALNFGTEPVALGLSSLFDRADQRMQVVVSSNRVSTPDNVWVDVDNYVLIGESGIVLQYLWGKNPIVS
Regarding B2, in data set [2], the Km is recorded as 47.6 ± 16.3 mM, the Vmax worked out at 740 µM/min, the kcat is 805 ± 66.7 s⁻¹ and the kcat/Km came to 16900 ± 1380 M⁻¹ s⁻¹.

B3: AnGluc (Anopheles gambiae) (protein)
chain: HRPLPIRKAHKFDWWERGNFYQIYPRSFKDSDGDGIGDLKGITQTIDYLKTIGIDGVWLSPIFKSPMNDFGYDISDFYAIQEEYGTMEDFEELAAKCASIGLKLILDFVPNHSSDEHEHFRLSEEGIEPYKDYYIWHSGVLDANGTRHPPSNWISVFRGSAWQWSDKRQQYYLHQFQKKQPDLNYRNPALVEEMKNVMRFWLNKGIAGFRIDALPYLFESEEVDGHYRDEPLSGQATDDPDNPAYLTHTETKDQPETYDMVHQWRQVVDEYTARDNFTRIILTEAYTAVQNMTRFYGTPAAPGAQIPFNFQLITLLTVNSTGRDFVNAVQSWTRAMPSGAIANWVLGNHDNSRIASRLGVARADLYNIALQTLPGIAVTYYGEEIAMVDQWISWNDTIDPAACNADPATYELYSRDPVRTPFQWSNGTNAGFSNASRTWLPVADGYRELNVAAQLAAPRSHLKTFMQLTAYRKRRLLAEGNFVLRTVGRDLVMYKRSVPGVGYVVVALNFGPEPATLPVASQFPGTGEHWLKVIASSLQAQPQAGTWINTRLYKLAPDSGIVLERLTGRNDLMT
Turning to B3, in data set [3], the Km turned out to be 20.4 ± 7.4 mM, the Vmax was 740 µM/min, the kcat was determined as 815 ± 60 s⁻¹ and the kcat/Km was 40000 ± 2920 M⁻¹ s⁻¹.

The record behind these values is paper PMC10955559.
